The text below walks through data of paper PMC11027793 (Molecular cell, 2022).

To fix the notation:
T1: GST-WDR24 wild-type (full-length) (UniProt Q96S15 1-790)
T1 sequence (looked up): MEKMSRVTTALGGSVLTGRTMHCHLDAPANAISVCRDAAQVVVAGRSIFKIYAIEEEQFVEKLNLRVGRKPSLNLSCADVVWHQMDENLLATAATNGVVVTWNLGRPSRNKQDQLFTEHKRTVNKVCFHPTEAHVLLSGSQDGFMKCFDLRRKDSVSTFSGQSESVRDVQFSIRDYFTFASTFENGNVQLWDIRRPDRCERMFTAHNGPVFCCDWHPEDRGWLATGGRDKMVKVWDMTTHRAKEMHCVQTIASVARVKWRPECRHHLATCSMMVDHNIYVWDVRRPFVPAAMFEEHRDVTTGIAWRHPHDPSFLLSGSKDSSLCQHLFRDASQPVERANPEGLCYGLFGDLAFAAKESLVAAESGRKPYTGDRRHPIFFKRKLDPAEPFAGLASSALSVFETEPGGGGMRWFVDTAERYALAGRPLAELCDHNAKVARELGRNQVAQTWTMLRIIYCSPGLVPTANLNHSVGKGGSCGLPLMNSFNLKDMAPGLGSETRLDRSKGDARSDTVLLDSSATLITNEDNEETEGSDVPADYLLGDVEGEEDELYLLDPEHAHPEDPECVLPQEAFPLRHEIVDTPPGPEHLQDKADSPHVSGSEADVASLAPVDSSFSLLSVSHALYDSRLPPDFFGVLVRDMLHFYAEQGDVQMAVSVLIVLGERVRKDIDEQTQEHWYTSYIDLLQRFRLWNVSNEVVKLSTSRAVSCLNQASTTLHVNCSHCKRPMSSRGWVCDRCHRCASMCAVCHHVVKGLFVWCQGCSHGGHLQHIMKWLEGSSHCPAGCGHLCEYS

T2: Flag-WDR24 purified from HEK293T cells (UniProt Q96S15 1-790)
T2 sequence (looked up): T1 sequence (looked up)

T3: Flag-WDR59 purified from HEK293T cells (UniProt Q6PJI9 1-974)
T3 sequence (looked up): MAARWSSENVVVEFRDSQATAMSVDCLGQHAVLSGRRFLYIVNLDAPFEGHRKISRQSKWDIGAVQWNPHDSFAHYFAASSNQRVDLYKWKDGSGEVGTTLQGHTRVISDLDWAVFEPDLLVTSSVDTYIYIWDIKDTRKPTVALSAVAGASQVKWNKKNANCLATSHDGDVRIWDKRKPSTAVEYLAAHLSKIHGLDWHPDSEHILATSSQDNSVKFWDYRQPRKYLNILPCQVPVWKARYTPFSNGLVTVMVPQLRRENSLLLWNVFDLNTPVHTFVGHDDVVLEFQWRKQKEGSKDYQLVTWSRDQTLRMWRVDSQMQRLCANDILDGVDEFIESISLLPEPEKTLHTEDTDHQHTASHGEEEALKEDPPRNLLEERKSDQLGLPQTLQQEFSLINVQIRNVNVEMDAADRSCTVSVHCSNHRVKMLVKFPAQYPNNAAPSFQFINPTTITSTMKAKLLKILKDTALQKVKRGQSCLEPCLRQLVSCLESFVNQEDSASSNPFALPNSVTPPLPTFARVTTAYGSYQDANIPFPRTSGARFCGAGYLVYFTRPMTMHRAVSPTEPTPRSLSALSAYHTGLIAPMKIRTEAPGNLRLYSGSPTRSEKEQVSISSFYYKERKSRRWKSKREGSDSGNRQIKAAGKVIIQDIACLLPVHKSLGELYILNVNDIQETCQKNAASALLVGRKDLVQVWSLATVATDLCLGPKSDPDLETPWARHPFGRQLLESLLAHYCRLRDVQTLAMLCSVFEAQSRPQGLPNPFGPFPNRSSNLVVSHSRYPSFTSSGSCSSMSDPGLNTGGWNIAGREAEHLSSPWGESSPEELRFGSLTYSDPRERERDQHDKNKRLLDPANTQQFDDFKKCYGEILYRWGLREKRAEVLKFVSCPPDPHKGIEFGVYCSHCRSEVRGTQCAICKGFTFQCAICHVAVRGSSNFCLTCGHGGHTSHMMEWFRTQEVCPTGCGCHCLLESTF

T4: GST-WDR59 wild-type (UniProt Q6PJI9 1-974)
T4 sequence (looked up): T3 sequence (looked up)

B1: His6-tag UBE2D3 (enzyme)
chain: not shown
B2: Flag-Sestrin2 (pRK5-FLAG-Sestrin2) (natural protein, UniProt P58004 1-480, looked up)
chain: MIVADSECRAELKDYLRFAPGGVGDSGPGEEQRESRARRGPRGPSAFIPVEEVLREGAESLEQHLGLEALMSSGRVDNLAVVMGLHPDYFTSFWRLHYLLLHTDGPLASSWRHYIAIMAAARHQCSYLVGSHMAEFLQTGGDPEWLLGLHRAPEKLRKLSEINKLLAHRPWLITKEHIQALLKTGEHTWSLAELIQALVLLTHCHSLSSFVFGCGILPEGDADGSPAPQAPTPPSEQSSPPSRDPLNNSGGFESARDVEALMERMQQLQESLLRDEGTSQEEMESRFELEKSESLLVTPSADILEPSPHPDMLCFVEDPTFGYEDFTRRGAQAPPTFRAQDYTWEDHGYSLIQRLYPEGGQLLDEKFQAAYSLTYNTIAMHSGVDTSVLRRAIWNYIHCVFGIRYDDYDYGEVNQLLERNLKVYIKTVACYPEKTTRRMYNLFWRHFRHSEKVHVNLLLLEARMQAALLYALRAITRYMT
B3: GST-Mios Ring (785–875) (domain or fragment, UniProt Q9NXC5 785-875, looked up)
chain: CALCLINMGTPVSSCPGGTKSDEKVDLSKDKKLAQFNNWFTWCHNCRHGGHAGHMLSWFRDHAECPVSACTCKCMQLDTTGNLVPAETVQP
B4: His-MBP-WDR59 Ring (924–974) (domain or fragment, UniProt Q6PJI9 924-974, looked up)
chain: {His-MBP}-CAICHVAVRGSSNFCLTCGHGGHTSHMMEWFRTQEVCPTGCGCHCLLESTF
modifications: cysteine pairing not given here; reading uncertain
B5: Flag-Mios purified from HEK293T cells (natural protein, UniProt Q9NXC5 1-875, looked up)
chain: MSGTKPDILWAPHHVDRFVVCDSELSLYHVESTVNSELKAGSLRLSEDSAATLLSINSDTPYMKCVAWYLNYDPECLLAVGQANGRVVLTSLGQDHNSKFKDLIGKEFVPKHARQCNTLAWNPLDSNWLAAGLDKHRADFSVLIWDICSKYTPDIVPMEKVKLSAGETETTLLVTKPLYELGQNDACLSLCWLPRDQKLLLAGMHRNLAIFDLRNTSQKMFVNTKAVQGVTVDPYFHDRVASFYEGQVAIWDLRKFEKPVLTLTEQPKPLTKVAWCPTRTGLLATLTRDSNIIRLYDMQHTPTPIGDETEPTIIERSVQPCDNYIASFAWHPTSQNRMIVVTPNRTMSDFTVFERISLAWSPITSLMWACGRHLYECTEEENDNSLEKDIATKMRLRALSRYGLDTEQVWRNHILAGNEDPQLKSLWYTLHFMKQYTEDMDQKSPGNKGSLVYAGIKSIVKSSLGMVESSRHNWSGLDKQSDIQNLNEERILALQLCGWIKKGTDVDVGPFLNSLVQEGEWERAAAVALFNLDIRRAIQILNEGASSEKGDLNLNVVAMALSGYTDEKNSLWREMCSTLRLQLNNPYLCVMFAFLTSETGSYDGVLYENKVAVRDRVAFACKFLSDTQLNRYIEKLTNEMKEAGNLEGILLTGLTKDGVDLMESYVDRTGDVQTASYCMLQGSPLDVLKDERVQYWIENYRNLLDAWRFWHKRAEFDIHRSKLDPSSKPLAQVFVSCNFCGKSISYSCSAVPHQGRGFSQYGVSGSPTKSKVTSCPGCRKPLPRCALCLINMGTPVSSCPGGTKSDEKVDLSKDKKLAQFNNWFTWCHNCRHGGHAGHMLSWFRDHAECPVSACTCKCMQLDTTGNLVPAETVQP
B6: GST-fusion protein of full-length wild-type Mios (natural protein, UniProt Q9NXC5 1-875, looked up)
chain: B5 chain

Like-named read-outs stand apart in the source and are kept apart here. Where no end group is shown, it is not given here. MBP = not defined here

Common to all, as to test: pull-down
Test [1] deals with T1, GST-WDR24 wild-type (full-length).
For test [2], the target named is T2, Flag-WDR24 purified from HEK293T cells.
The target is the same in test [3]. This is another data set of the same source.
Test [4] has as its target T3, Flag-WDR59 purified from HEK293T cells.
The target of test [5] is B3.
Test [6] has as its target T4, GST-WDR59 wild-type.

As for B1, the binding result in test [1] and in test [2] was “binds” in each case.
For the molecule B2, the binding result in test [1] was “binds”.
For the molecule B3, the binding result in test [3] and in test [4] was “binds” throughout.
Take B4: the binding result in test [5] is “binds”.
On the same count and under the same terms, to {His-MBP}-CAVCHHVVKGLFVWCQGCSHGGHLQHIMKWLEGSSHCPAGCGHLCEYS (domain or fragment, UniProt Q96S15 743-790, looked up, cysteine pairing not given here; reading uncertain) [His-MBP-WDR24 Ring (743–790)] belongs “binds”.
Take B5: in test [6], the binding result was “binds”.
As to B6, in test [4], the binding result was “binds”.
